B1: h10A11 (IGKV4-1/IGHV3-73 R50K): humanized 10A11 heavy chain CDR point mutant (antibody, V domains shown)
VL: DIVMTQSPDSLAVSLGERATINCRSSKSLLHSNGNTYLYWYQQKPGQPPKLLIYRMSNLASGVPDRFSGSGSGTDFTLTISSLQAEDVAVYYCMQHLEYPLTFGQGTKLEIKRT
VH: EVQLVESGGGLVQPGGSLKLSCAASGFAFNTYALYWVRQASGKGLEWVGKIRSKSNNYATYYADSVKDRFTISRDDSKNTAYLQMNSLKTEDTAVYYCTRARFYYSDYGYAMDYWGQGTLVTVSS
B2: h10A11 (IGKV4-1/IGHV3-73 N53Q): humanized 10A11 heavy chain CDR point mutant (antibody, V domains shown)
VL: DIVMTQSPDSLAVSLGERATINCRSSKSLLHSNGNTYLYWYQQKPGQPPKLLIYRMSNLASGVPDRFSGSGSGTDFTLTISSLQAEDVAVYYCMQHLEYPLTFGQGTKLEIKRT
VH: EVQLVESGGGLVQPGGSLKLSCAASGFAFNTYALYWVRQASGKGLEWVGRIRSKSQNYATYYADSVKDRFTISRDDSKNTAYLQMNSLKTEDTAVYYCTRARFYYSDYGYAMDYWGQGTLVTVSS
B3: h10A11 (IGKV4-1/IGHV3-73 A60V): humanized 10A11 heavy chain CDR point mutant (antibody, V domains shown)
VL: DIVMTQSPDSLAVSLGERATINCRSSKSLLHSNGNTYLYWYQQKPGQPPKLLIYRMSNLASGVPDRFSGSGSGTDFTLTISSLQAEDVAVYYCMQHLEYPLTFGQGTKLEIKRT
VH: EVQLVESGGGLVQPGGSLKLSCAASGFAFNTYALYWVRQASGKGLEWVGRIRSKSNNYATYYVDSVKDRFTISRDDSKNTAYLQMNSLKTEDTAVYYCTRARFYYSDYGYAMDYWGQGTLVTVSS
B4: h10A11 (IGKV4-1/IGHV3-73 I51L): humanized 10A11 heavy chain CDR point mutant (antibody, V domains shown)
VL: DIVMTQSPDSLAVSLGERATINCRSSKSLLHSNGNTYLYWYQQKPGQPPKLLIYRMSNLASGVPDRFSGSGSGTDFTLTISSLQAEDVAVYYCMQHLEYPLTFGQGTKLEIKRT
VH: EVQLVESGGGLVQPGGSLKLSCAASGFAFNTYALYWVRQASGKGLEWVGRLRSKSNNYATYYADSVKDRFTISRDDSKNTAYLQMNSLKTEDTAVYYCTRARFYYSDYGYAMDYWGQGTLVTVSS
B5: h10A11 (IGKV4-1/IGHV3-73 R52K): humanized 10A11 heavy chain CDR point mutant (antibody, V domains shown)
VL: DIVMTQSPDSLAVSLGERATINCRSSKSLLHSNGNTYLYWYQQKPGQPPKLLIYRMSNLASGVPDRFSGSGSGTDFTLTISSLQAEDVAVYYCMQHLEYPLTFGQGTKLEIKRT
VH: EVQLVESGGGLVQPGGSLKLSCAASGFAFNTYALYWVRQASGKGLEWVGRIKSKSNNYATYYADSVKDRFTISRDDSKNTAYLQMNSLKTEDTAVYYCTRARFYYSDYGYAMDYWGQGTLVTVSS
B6: h10A11 (IGKV4-1/IGHV3-73 D61E): humanized 10A11 heavy chain CDR point mutant (antibody, V domains shown)
VL: DIVMTQSPDSLAVSLGERATINCRSSKSLLHSNGNTYLYWYQQKPGQPPKLLIYRMSNLASGVPDRFSGSGSGTDFTLTISSLQAEDVAVYYCMQHLEYPLTFGQGTKLEIKRT
VH: EVQLVESGGGLVQPGGSLKLSCAASGFAFNTYALYWVRQASGKGLEWVGRIRSKSNNYATYYAESVKDRFTISRDDSKNTAYLQMNSLKTEDTAVYYCTRARFYYSDYGYAMDYWGQGTLVTVSS
B7: h10A11 (IGKV4-1/IGHV3-73 Y59F): humanized 10A11 heavy chain CDR point mutant (antibody, V domains shown)
VL: DIVMTQSPDSLAVSLGERATINCRSSKSLLHSNGNTYLYWYQQKPGQPPKLLIYRMSNLASGVPDRFSGSGSGTDFTLTISSLQAEDVAVYYCMQHLEYPLTFGQGTKLEIKRT
VH: EVQLVESGGGLVQPGGSLKLSCAASGFAFNTYALYWVRQASGKGLEWVGRIRSKSNNYATYFADSVKDRFTISRDDSKNTAYLQMNSLKTEDTAVYYCTRARFYYSDYGYAMDYWGQGTLVTVSS
B8: h10A11 (IGKV4-1/IGHV3-73 T57S): humanized 10A11 heavy chain CDR point mutant (antibody, V domains shown)
VL: DIVMTQSPDSLAVSLGERATINCRSSKSLLHSNGNTYLYWYQQKPGQPPKLLIYRMSNLASGVPDRFSGSGSGTDFTLTISSLQAEDVAVYYCMQHLEYPLTFGQGTKLEIKRT
VH: EVQLVESGGGLVQPGGSLKLSCAASGFAFNTYALYWVRQASGKGLEWVGRIRSKSNNYASYYADSVKDRFTISRDDSKNTAYLQMNSLKTEDTAVYYCTRARFYYSDYGYAMDYWGQGTLVTVSS
B9: h10A11 (IGKV4-1/IGHV3-73 S52aT): humanized 10A11 heavy chain CDR point mutant (antibody, V domains shown)
VL: DIVMTQSPDSLAVSLGERATINCRSSKSLLHSNGNTYLYWYQQKPGQPPKLLIYRMSNLASGVPDRFSGSGSGTDFTLTISSLQAEDVAVYYCMQHLEYPLTFGQGTKLEIKRT
VH: EVQLVESGGGLVQPGGSLKLSCAASGFAFNTYALYWVRQASGKGLEWVGRIRTKSNNYATYYADSVKDRFTISRDDSKNTAYLQMNSLKTEDTAVYYCTRARFYYSDYGYAMDYWGQGTLVTVSS
B10: h10A11 (IGKV4-1/IGHV3-73 K52bR): humanized 10A11 heavy chain CDR point mutant (antibody, V domains shown)
VL: DIVMTQSPDSLAVSLGERATINCRSSKSLLHSNGNTYLYWYQQKPGQPPKLLIYRMSNLASGVPDRFSGSGSGTDFTLTISSLQAEDVAVYYCMQHLEYPLTFGQGTKLEIKRT
VH: EVQLVESGGGLVQPGGSLKLSCAASGFAFNTYALYWVRQASGKGLEWVGRIRSRSNNYATYYADSVKDRFTISRDDSKNTAYLQMNSLKTEDTAVYYCTRARFYYSDYGYAMDYWGQGTLVTVSS
B11: h10A11 (IGKV4-1/IGHV3-73 S62T): humanized 10A11 heavy chain CDR point mutant (antibody, V domains shown)
VL: DIVMTQSPDSLAVSLGERATINCRSSKSLLHSNGNTYLYWYQQKPGQPPKLLIYRMSNLASGVPDRFSGSGSGTDFTLTISSLQAEDVAVYYCMQHLEYPLTFGQGTKLEIKRT
VH: EVQLVESGGGLVQPGGSLKLSCAASGFAFNTYALYWVRQASGKGLEWVGRIRSKSNNYATYYADTVKDRFTISRDDSKNTAYLQMNSLKTEDTAVYYCTRARFYYSDYGYAMDYWGQGTLVTVSS
B12: h10A11 (IGKV4-1/IGHV3-73 V63L): humanized 10A11 heavy chain CDR point mutant (antibody, V domains shown)
VL: DIVMTQSPDSLAVSLGERATINCRSSKSLLHSNGNTYLYWYQQKPGQPPKLLIYRMSNLASGVPDRFSGSGSGTDFTLTISSLQAEDVAVYYCMQHLEYPLTFGQGTKLEIKRT
VH: EVQLVESGGGLVQPGGSLKLSCAASGFAFNTYALYWVRQASGKGLEWVGRIRSKSNNYATYYADSLKDRFTISRDDSKNTAYLQMNSLKTEDTAVYYCTRARFYYSDYGYAMDYWGQGTLVTVSS
B13: h10A11 (IGKV4-1/IGHV3-73 S52cT): humanized 10A11 heavy chain CDR point mutant (antibody, V domains shown)
VL: DIVMTQSPDSLAVSLGERATINCRSSKSLLHSNGNTYLYWYQQKPGQPPKLLIYRMSNLASGVPDRFSGSGSGTDFTLTISSLQAEDVAVYYCMQHLEYPLTFGQGTKLEIKRT
VH: EVQLVESGGGLVQPGGSLKLSCAASGFAFNTYALYWVRQASGKGLEWVGRIRSKTNNYATYYADSVKDRFTISRDDSKNTAYLQMNSLKTEDTAVYYCTRARFYYSDYGYAMDYWGQGTLVTVSS
B14: h10A11 (IGKV4-1/IGHV3-73 A56V): humanized 10A11 heavy chain CDR point mutant (antibody, V domains shown)
VL: DIVMTQSPDSLAVSLGERATINCRSSKSLLHSNGNTYLYWYQQKPGQPPKLLIYRMSNLASGVPDRFSGSGSGTDFTLTISSLQAEDVAVYYCMQHLEYPLTFGQGTKLEIKRT
VH: EVQLVESGGGLVQPGGSLKLSCAASGFAFNTYALYWVRQASGKGLEWVGRIRSKSNNYVTYYADSVKDRFTISRDDSKNTAYLQMNSLKTEDTAVYYCTRARFYYSDYGYAMDYWGQGTLVTVSS
B15: h10A11 (IGKV4-1/IGHV3-73 Y55F): humanized 10A11 heavy chain CDR point mutant (antibody, V domains shown)
VL: DIVMTQSPDSLAVSLGERATINCRSSKSLLHSNGNTYLYWYQQKPGQPPKLLIYRMSNLASGVPDRFSGSGSGTDFTLTISSLQAEDVAVYYCMQHLEYPLTFGQGTKLEIKRT
VH: EVQLVESGGGLVQPGGSLKLSCAASGFAFNTYALYWVRQASGKGLEWVGRIRSKSNNFATYYADSVKDRFTISRDDSKNTAYLQMNSLKTEDTAVYYCTRARFYYSDYGYAMDYWGQGTLVTVSS
B16: h10A11 (IGKV4-1/IGHV3-73 Y58F): humanized 10A11 heavy chain CDR point mutant (antibody, V domains shown)
VL: DIVMTQSPDSLAVSLGERATINCRSSKSLLHSNGNTYLYWYQQKPGQPPKLLIYRMSNLASGVPDRFSGSGSGTDFTLTISSLQAEDVAVYYCMQHLEYPLTFGQGTKLEIKRT
VH: EVQLVESGGGLVQPGGSLKLSCAASGFAFNTYALYWVRQASGKGLEWVGRIRSKSNNYATFYADSVKDRFTISRDDSKNTAYLQMNSLKTEDTAVYYCTRARFYYSDYGYAMDYWGQGTLVTVSS

In this assay the target is T1, human CCR8 (Homo sapiens, UniProt P51685).
T1 construct: expressed in transfected cells; host or cells: 293 cells
In words: Neutralizing activity: inhibition of Ca2+ influx by 200 nM hCCL1 in human CCR8 expressing 293 cells (FLIPR), Test Example 6. It counts as cell-based. To be noted: Table 9; WT IC50/mutant IC50; humanized 10A11 heavy chain CDR mutants, IGKV4-1/IGHV3-73. The protocol:
The antibody dilution diluted with a medium was added to human CCR8 expressing 293 cells in which a Ca^2+ indicator was incorporated beforehand, and Ca^2+ influx by addition of 200 nM hCCL1 (manufactured by BioLegend) was measured with FLIPR. […] The evaluation was performed at least three times, and IC50 was expressed as average±SD.
Turning to B1, the IC50 ratio is listed as 0.12. As for B2, the figure is 0.03. With B3 the figure was 0.67; with B4, 0.22; with B5, “n.d. (The n.d. (=not detectable) indicates that the IC50 value of the mutant is 10 nM or more)”. B6: the IC50 ratio is given as 0.25. With B7 the figure was 0.03. On to B8, for which the IC50 ratio is recorded as 0.49.

Regarding B9, the IC50 ratio stood at 0.22.

Regarding B10, the IC50 ratio is 0.47. Regarding B11, the IC50 ratio is on record as 1.60.

For the molecule B12, the IC50 ratio is given as 0.56.

Take B13: the IC50 ratio was found to be 0.53. For B14, the IC50 ratio is listed as 0.55. As for B15, the IC50 ratio is listed as 0.47. As to B16, the IC50 ratio was determined as 0.50.

The record behind these values is patent US20230256092A1, “COMBINED USE OF ANTI-CCR8 ANTIBODY AND CHEMOTHERAPEUTIC AGENT” (Shionogi & Co., Ltd., priority 2020, published 2023).
